Data published in patent publication US20190119357A1, “MESSENGER RIBONUCLEIC ACIDS FOR THE PRODUCTION OF INTRACELLULAR BINDING POLYPEPTIDES AND METHODS OF USE THEREOF” (ModernaTX, Inc., priority 2015, published 2019).

Assays:
cells = test: Half-life determination by bio-orthogonal non-canonical amino acid tagging (BONCAT); assay type: cell-based; conditions: SQT protein scaffold in cells, post-transfection, one-phase decay fit
Protocol: The half-life of the SQT protein scaffold in cells was determined by Bio-orthogonal non-canonical amino acid tagging (BONCAT). […] AHA contains a reactive group (a terminal azide), which can be conjugated to a fluorophore via click chemistry. Newly synthesized proteins in the cells were separated by molecular weight (SDS-PAGE) at various time points post-transfection and visualized via in-gel fluorescence. The fluorescent signal was quantified using Li-cor's Image Studio (Version 3.1). One-phase decay nonlinear regression fit was by GraphPad Prism (Version 6).

[1] = Pharmacokinetics of intracellular expression of SQT scaffold polypeptide in mouse livers in vivo; set-up: species or system mice; conditions: mouse liver
Protocol: Studies were performed to assess the pharmacokinetics of intracellular expression of the SQT scaffold polypeptide in mouse livers in vivo following multiple dosing. Mice were dosed on day 0 and on day 7 with an LNP carrying an mmRNA construct encoding the SQT scaffold polypeptide. The construct lacked any presenting polypeptides at any of the insertion sites (i.e., the construct was a “dummy” construct of only the scaffold), and was labeled with a FLAG epitope tag. Following dosing with the LNPs, liver protein was recovered and analyzed for expression of the SQT scaffold using the FLAG epitope tag for detection and quantification by quantitative Western blot analysis (LICOR/Western). Protein amounts were normalized to vinculin.

B1: SQT scaffold: Stefin A Quadruple Mutant-Tracy scaffold polypeptide (SEQ ID NO: 70) expressed from a dummy mmRNA construct (protein)
chain: MIPRGLSEAKPATPEIQEIVDKVKPQLEEKTNETYGKLEAVQYKTQVLASTNYYIKVRAGDNKYMHLKVFNGPPGQNADRVLTGYQVDKNKDDELTGF
modifications: Synthetic SteA SQT scaffold amino acid sequence
- half-life (cells): 33.31 h
- time to peak protein levels ([1]; first dose (day 0) of LNP): approximately 20 hours
- time at which protein levels were essentially finished ([1]; post-injection of first dose): approximately 160 hours
- time to peak protein levels ([1]; second dose (day 7), post-injection): approximately 20 hours
